Laboratory results taken from US20250313612A1 (Adimab, published 2025).

B1: ADI-14505 (antibody, V domains shown)
VH: QVQLVQSGAEVKKPGASVKVSCKASGNSFNDFYMHWVRQAPGQGLEWMGWIDPNNGGANYAQKFHGRVTMTRDSSINTAYMELSRLRSDDTAVYYCASEPPGVGFGLIPHYYFDNWGQGTLVTVSS
VL: EIVMTQSPDSLAVSLGERATINCKSSQNVLDTSNNKNYLAWYQQKPGQPPRLLIYWASARGSGVPDRFSGSGSGTHFTLTISSLQAEDVAVYYCQQYFSIPPTFGQGTKVEIK
B2: ADI-14444 (antibody, V domains shown)
VH: QVQLVQSGPDVKRPGASVRVSCKASGYTFSDYYMHWVRQAPGQGLEWLAWVNPSTGATHYSESFRGSMVVQRDTSTDTAYLELSSLKSDDTAVYYCARIGSNEIWGQGTMVTVSS
VL: QSALTQPASVSGSPGQSITISCAGTSSDIGGWNYVSWYQQYPGQVPKLILYEVTDRPSGVSHRFSGSKSGNRAFLTITGLRAEDEADYYCCSFTSSGSRVFGGGTKVTVL
B3: ADI-14502 (antibody, V domains shown)
VH: QVQLVQSGAEVKKPGSSVKVSCKASGDTFSMYAISWVRQAPGQGLEWMGGVLPMLGTSNYAQQFRGRVTITADGSTSTAYMEMSNLRFEDTAVYYCARVAGLGNSYGRYFDVWGQGTLVTVSS
VL: DIRMTQSPSSVSASIGDRVTITCRASQDISTSLAWYQQRPGKAPNLLIYAASTLHSGVPSRFRGSESGPDFTLTISSLQPEDVGTYYCQQAKSFPYTFGQGTKLEIK
B4: ADI-14442 (antibody, V domains shown)
VH: QVQLVQSGSEVKKPGASVKVSCKASGYRFSNYGISWVRQAPGQGLEWMGWISAYNGNIKYGNNLQGRVTVTTDTSTATAYMEVRSLTSDDTAVYYCARDVPADGVHFMDVWGQGTLVTVSS
VL: EIVMTQSPLSLPVTLGQPASISCRSSQSLVHSDTNTYLNWFQQRPGQSPRRLIYKVSNRDSGVPDRFSGSGSGTTFTLKISRVEAEDVGIYYCMQGSHWAPTFGQGTKVEIK
B5: ADI-14509 (antibody, V domains shown)
VH: QVQLVQSGSEVKKPGASVTLSCKASGYRFSNYGVSWVRQAPGQGLEWMGWISGYNGNIKYGNSLQGRVTLTTDTTTAYMEVTSLTSDDTAVYYCARDVPADGVHFMDVWGKGTTVTVSS
VL: EIVLTQSPLSLPVTLGQPASISCRSSQSLVHSDTNTYLTWFQQRPGQSPRRLIYKVSHRDSGVPDRFSGSGSGTTFTLKIARVEAEDVGIYYCMEGSHWAPTFGQGTKVDIK
B6: ADI-14455 (antibody, V domains shown)
VH: QVQLVQSGAEVKKPGASVKVSCKASGYTFTSYGTSWVRQAPGQGLEWMGWISAYNGNTNYAQNLQGRVTMTTDTSTSTSYMELRSLRSDDTAVYYCARDVPVIAAGTMDYWGQGTLVTVSS
VL: DIVMTQTPLSLPVTLGQPASISCRSSQSLVYSDGNTYLNWFQQRPGQSPRRLIYKVSNRDSGVPDRFSGSGSGTDFTLKISRVEAEDVGVYYCMQGPHWPRTFGQGTKVEIK
B7: ADI-14514 (antibody, V domains shown)
VH: QVQLVQSGSEVKKPGASVTVSCKASGYRFSNYGVSWVRQAPGQGLEWMGWISAYNGNTKYGNSLQGRVTLTTDTTTAYMEVRSLTSDDTAVYYCARDVPGDGVHFMDVWGKGTTVTVSS
VL: EIVMTQSPLSLPVTLGQSASISCRSSQSLVHSDTNTYLTWFQQRPGQSPRRLIYKVSHRDSGVPDRFSGSGSGTTFTLKISRVEAEDVGIYYCMEGSHWAPTFGQGTKVEIK
B8: ADI-14489 (antibody, V domains shown)
VH: QVQLVQSGSEVKKPGASVKVSCKASGYRFSNYGISWVRQAPGQGLEWMGWISAYNGNIKYGNNLQGRVTVTTDTSTTTAYMEVRSLTSDDTAVYYCARDVPADGVHFMDVWGKGTTVTVSS
VL: DIVMTQTPLSLPVTLGQPASISCRSSQSLVHSDTNTYLNWFQQRPGQSPRRLIYKVSNRDSGVPDRFSGSGSGTTFTLKISRVEAEDVGIYYCMQGSHWAPTFGQGTKVEIK
B9: ADI-14508 (antibody, V domains shown)
VH: QVQLVQSGTEVKKPGASVKVSCKGSGYMFANFGVSWVRQAPGRGLEWIGWISAYNGNTYYGREQGRFTMTTDTNTAYLELTSLRYDDTALYFCARDSGATAAGILWDYWGQGTLVTVSS
VL: EIVMTQSPLSLPVTLGQPASISCRSSQSLAYTDGSTYLNWFHQRPGQSPRRLIYKVFNRDSGVPDRFSGSGAGTDFTLTISRVEAEDVGVYYCMQATHWPRTFGQGTKVDIK
B10: ADI-14496 (antibody, V domains shown)
VH: QVQLVQSGAEVKKPGESLKISCQGSGYSFRSYWIGWVRQKPGKGLEYMGIIFPNDFDTRYSPSFQGQVTISVDKSTSTAFLQWTSLQASDTAIYYCGRQELQGSFTIWGQGTMVTVTS
VL: DIVMTQSPSSLSASVGDRVTITCQASQDMGNSLNWYQQKSGKAPKLLIYDASYLDSGVPSRFSGSGSGTHFTFTISTLQPEDIATYYCQHYDNLLLFTFGPGTKLEIK
B11: ADI-14516 (antibody, V domains shown)
VH: QVQLVQSGVEVKKPGASVKVSCKTSGYTFSNYGVTWVRQAPGQGLEYMGWISAYNGNTNYAQNVQGRLTMTTDTSTSTGYMELRRLTSDDTAVYFCARDKGVTVAGSLLDYWGQGTLVTVSS
VL: EIVMTQSPLSLPVTLGQPASISCRSSQSLEHSDGNTYLNWFQQRPGQSPRRLIYKVSNRDSGVPDRFSGSGSGTDFTLKINRVEAEDVGVYYCMESTHWPPYTFGQGTKVEIK
B12: ADI-14501 (antibody, V domains shown)
VH: QVQLVQSGAEVKKPGSSVKISCKASGGTFKSQAIHWVRQAPGQGLEWMGNIIPTYGSPNFAQRFLGRVTFIADDSTGAASMDLYRLTSEDTAVYYCATAGWFGELVRFDSWGQGTLVTVSS
VL: DIVMTQSPATLSVSPGERATLSCRATESISSNLAWYQQKPGQAPRLLIYGASTRATGIPARFSGSGSGTEFTLTINSLQSEDFAVYYCQQYNNWPPLTFGGGTKVDIK
B13: ADI-14520 (antibody, V domains shown)
VH: QVQLQQWGAGLVKPSETLSLTCAVYGGSFSGYQWHWFRQPPGKGLEWIGEINHSEITHYNASLKSRVTLSIDTSKNQFSLNLTSVTAADTAVYYCARASSGSYNFEYWFDPWGQGTLVTVSS
VL: QSVLTQPPSVSVAPGKTAWLTCGGNNIGSKRVHWYRQKPGQAPVLVVYDDYDRPSGTPERVSGSNSGNTATLTISRVEDGDEGDYYCQVWDDPSDHAVFGGGTKLTVL
B14: ADI-14448 (antibody, V domains shown)
VH: EVQLVESGGGLVKPGGSLRLSCAASGSSFRYSYMSWVRQAPGKGLQWVASISPSSTYTDYADSVKGRSTISRDHDKISLQVNSLRGDDTAVYYCVRHMNLVMGPFAFDIWGRGTMVTVSS
VL: QSVVTQPPSLSGAPGQRITISCTGSSSNIGAGYDVNWYQQLPGTAPKLLIYAKTNRPSGVPERFSGSESGTSASLAITGLQPEDEADYYCQSYDRIGMYVFGTGTKLTVL
B15: ADI-14518 (antibody, V domains shown)
VH: QVQLVQSGPEVKKPGASVRVSCKTSGFTLSHYGVSWLRQAPGHGLEWLGWISAYNYNTQFGHRMEGRLTMTTDTSTAYMDLTSLTSDDTAIYYCARDSPSDTAAALLDFWGQGTLVTVSS
VL: DIVLTQSPLSLPVTLGQPASISCRSSQSLVYSDGNTYLSWFQQRPGQAPRRLIYKISNRDSGVPDRFSGSGSGTDFTLKISRVEAEDVGIYYCMQATHWPRLSFGGGTKVEIK
B16: ADI-14451 (antibody, V domains shown)
VH: EVQLVESGAEVRKPGASVKVSCKASGYIFINYYIHWVRQAPGQGLEWMGWINPNSGASNHAQTFEGRITMTTDTSSNTAYMELSRLREDDTAVYYCARSQQLLVITDYSLDYWGLGTLVTVSS
VL: SSELTQDPAVSVALGQTVRITCHGDTLRNYYPAWYQQKPGQAPVLVVSDRNTRPSGIPDRFSVSTSGNTASLTITGAQAEDEGDYYCNCRDSSGHRLVFGGGTKLTVL
B17: ADI-14515 (antibody, V domains shown)
VH: QVQLVQSGGGVVQPGSSLRLSCSASGFTFMTYGMHWARQAPGKGLEWVADISFDANKKYYRDSVKGRFTISRDNSKNTVYLQMNSLRPEDTAVYFCARNTIFGVVDYWGQGTLVTVSS
VL: EIVLTQSPATLSVSPGERATLSCRASQSVSANLAWYQHKPGQAPRLLIYGASTRASDIPARFSGSGSGTEFTLTISSLQSEDSAVYYCQQYNNWPPWTFGQGTKVEIK
B18: ADI-14493 (antibody, V domains shown)
VH: QVQLQQWGTGLVKPSETLSLTCAVSGGAFSGHQWNWFRQPPGKGLEWIGEINVSGNTHYNVSLRSRVTISLDESKKQFSLKMTSVTAADTAIYYCAKASSGSYHFEYWFDPWSQGTMVTVSS
VL: SYELTQPPSVSVAPGKMAWFTCGGSDIGSKRVHWYQQKPGQAPVLLVYDDSLRPSGTSARVSGSTSGNTATLSIISVEAGDEADYFCQVWDDADDHAVFGGGTKLTVL
B19: ADI-14521 (antibody, V domains shown)
VH: QVQLVQSGTEVKKPGASVKVSCLTSGYTFTHFGISWVRQAPGQGLEWMGWFSAYNGNTKYAQKFQGRITLTIDTSTSIAYLELRSLRSDDTAVYYCARDPPSLTAAGTLDYWGQGTLVTVSS
VL: DIRLTQSPLSLPVTLGQPASISCSSNQSLVYSDGNTYLSWFQQRPGQSPRRLIYKVSDRDSGVPDRFSGSGSGTDFTLKISRVEAEDVGVYYCMQATDWPRTFGQGTKVEIK
B20: ADI-14519 (antibody, V domains shown)
VH: EVQLVESGAEMKQPGASVKVSCEGFGNTLSERSIHWVRQAPGKGPEWMGDYDHEDKEAIYAPKFQGRLTISADMSTDIASLELNSLTSEDTAVYYCATVIAVGAYDIWGQGTLVTVSS
VL: EIVLTQSPSSLYASIGDRVTITCRTGQSISRYLNWYQQKPGKAPKLLIYAASTLQSGVPSRFSGSGAGTDFTLTIRGLLPEDFATYFCQQSYIIPYTFGQGTKVEIK

What was measured:
[1] = molecular target: RSV F protein of recombinant mKate-RSV, subtype A (strain A2) (Respiratory syncytial virus subtype A …, UniProt P03420 26-574); experiment: cell-based or functional assay
[2] = molecular target: RSV F protein of recombinant mKate-RSV, subtype B (18537) (Respiratory syncytial virus subtype B …, UniProt P13843 26-574); experiment: cell-based or functional assay

Row | Binder | Neut IC50 subtype A [1] | Neut IC50 subtype B [2]
1 | B1 | 0.065 µg/mL | 0.018 µg/mL
2 | B2 | > 10 µg/mL | > 10 µg/mL
3 | B3 | > 10 µg/mL | 2.72 µg/mL
4 | B4 | 0.002 µg/mL | 0.015 µg/mL
5 | B5 | 0.011 µg/mL | 0.016 µg/mL
6 | B6 | 0.012 µg/mL | 0.036 µg/mL
7 | B7 | 0.046 µg/mL | 0.074 µg/mL
8 | B8 | 0.023 µg/mL | 0.021 µg/mL
9 | B9 | 0.029 µg/mL | 0.057 µg/mL
10 | B10 | 0.006 µg/mL | > 10 µg/mL
11 | B11 | 0.018 µg/mL | 0.047 µg/mL
12 | B12 | 12.3 µg/mL | 2.29 µg/mL
13 | B13 | 0.029 µg/mL | 0.045 µg/mL
14 | B14 | 0.043 µg/mL | 0.066 µg/mL
15 | B15 | 0.019 µg/mL | 0.032 µg/mL
16 | B16 | 0.02 µg/mL | 0.06 µg/mL
17 | B17 | 0.051 µg/mL | 0.049 µg/mL
18 | B18 | 0.009 µg/mL | 1.27 µg/mL
19 | B19 | 0.083 µg/mL | 0.123 µg/mL
20 | B20 | 12.2 µg/mL | 3.43 µg/mL
